± gives the standard deviation of the averaged measurements.
B1: library; a variant is named by its letters at N, in order (parent)
chain: GCUGUCACCGGUGCUUGGUACGUUAUAUUCAGCCGGUCUGAUGAGUCUNNNNNNAGACGAAACAGC

Columns and labels:
[1] = variants of: B1; assay: normalized RNA/DNA level without ligand (relative to sTRSVctl = 100) (log10 (% of sTRSVctl)); HEK293T overexpressing SLC46A1; higher = less ribozyme self-cleavage, higher mRNA level; settings: without (6R,S)-folinic acid; ligand present: no
Outline: (§1)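 HEK293T cells were transfected with library plasmids carrying ribozyme switches linked to an mCherry reporter, or an eGFP reporter in some ligand experiments, at 4 µg per well of a 6-well plate, with any ligand added 1 h beforehand. After 72 h, total RNA was extracted with EDTA, reverse-transcribed, amplified, barcoded and sequenced. RNA level was defined as RNA reads over DNA reads, normalized to a spiked-in non-cleaving sequence or to the top-ranked sequences. That value was multiplied by 100 and converted to log10, the top set was 25 sequences, and only sequences with ≥100 DNA reads were retained.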

[2] = variants of: B1; assay: normalized RNA/DNA level with ligand (relative to sTRSVctl = 100) (log10 (% of sTRSVctl)); HEK293T overexpressing SLC46A1; ligand concentration (+) RNA-Seq: 6 mM; higher = less ribozyme self-cleavage, higher mRNA level; settings: with (6R,S)-folinic acid; ligand present: yes
Outline: as §1

| Variant | normalized RNA/DNA level without ligand (log10) [1] | normalized RNA/DNA level with ligand (log10) [2] |
| --- | --- | --- |
| UGGUUC | 2.01 ± 0.011 | 2.01 ± 0.081 |
| UGGUUA | 1.945 ± 0.013 | 2.01 ± 0.071 |
| UGGCUA | 2.03 ± 0.013 | 2.05 ± 0.028 |
| UGGCUC | 2.07 ± 0.024 | 2.04 ± 0.023 |
| UGGCUU | 2.021 ± 0.00062 | 2.043 ± 0.0081 |
| UGGCUG | 2.066 ± 0.0012 | 2.09 ± 0.023 |
| AGGUUC | 2.02 ± 0.024 | 2.03 ± 0.045 |
| AGGUUG | 2.005 ± 0.013 | 2.04 ± 0.053 |
| CGGUAC | 2.0071 ± 0.0016 | 1.992 ± 0.0076 |
| CGGUAU | 1.976 ± 0.0076 | 2.003 ± 0.013 |
| CGGUAG | 1.93 ± 0.025 | 1.963 ± 0.018 |
| UGGCGA | 1.98 ± 0.0056 | 2.067 ± 0.0097 |
| UGGCGU | 1.99 ± 0.031 | 2.03 ± 0.05 |
| UGGCGG | 1.8196 ± 0.0011 | 1.99 ± 0.056 |
| UGGCGC | 2.08 ± 0.027 | 2.05 ± 0.055 |
| AGGGAU | 1.949 ± 0.0057 | 1.98 ± 0.031 |
| AGGGAA | 1.965 ± 0.0039 | 2.01 ± 0.025 |
| UGGGCU | 2.06 ± 0.024 | 2.04 ± 0.025 |
| UGGGCA | 1.962 ± 0.0051 | 2.01 ± 0.032 |
| AGGUCG | 1.985 ± 0.013 | 2.05 ± 0.043 |

| Variant | normalized RNA/DNA level without ligand (log10) [1] | normalized RNA/DNA level with ligand (log10) [2] |
| --- | --- | --- |
| AGGUCA | 1.967 ± 0.014 | 2.01 ± 0.047 |
| AGGUCU | 2.043 ± 0.0045 | 2 ± 0.021 |
| CGGUGA | 2.029 ± 0.014 | 2.04 ± 0.043 |
| CGGUGG | 1.93 ± 0.024 | 1.99 ± 0.026 |
| CGGUGC | 2.053 ± 0.0063 | 2.007 ± 0.0042 |
| GGGGAG | 1.9915 ± 0.00084 | 2.04 ± 0.043 |
| GGGGAC | 1.995 ± 0.013 | 2.029 ± 0.012 |
| GGGGAU | 2.002 ± 0.0074 | 2.03 ± 0.05 |
| GGGUGU | 2.025 ± 0.011 | 2.06 ± 0.049 |
| GGGUGG | 2.056 ± 0.0092 | 2.04 ± 0.043 |
| AGGCGA | 2.0336 ± 0.00079 | 2.06 ± 0.023 |
| AGGCGC | 2.057 ± 0.015 | 2.03 ± 0.026 |
| AGGCGG | 2.0398 ± 0.0017 | 2.044 ± 0.01 |
| AGGCGU | 2.02 ± 0.025 | 2.048 ± 0.0022 |
| UGGGUA | 1.892 ± 0.0053 | 1.98 ± 0.053 |
| UGGGUU | 1.9881 ± 0.0019 | 2.018 ± 0.016 |
| UGGGUC | 2.11 ± 0.022 | 2.06 ± 0.034 |
| AGGCUU | 2.03 ± 0.027 | 2.04 ± 0.041 |
| AGGCUG | 2.0598 ± 0.0012 | 2.04 ± 0.0063 |
| CGGCGU | 2.05 ± 0.027 | 2.02 ± 0.046 |

| Variant | normalized RNA/DNA level without ligand (log10) [1] | normalized RNA/DNA level with ligand (log10) [2] |
| --- | --- | --- |
| CGGCGC | 2.0778 ± 0.0006 | 2.05 ± 0.029 |
| CGGCGG | 1.968 ± 0.0051 | 2.04 ± 0.041 |
| AGGUGC | 2.0042 ± 0.0006 | 2.01 ± 0.044 |
| AGGGGG | 1.9815 ± 0.00032 | 2.05 ± 0.064 |
| AGGGGA | 2.001 ± 0.0065 | 2.04 ± 0.058 |
| AGGGGC | 2.047 ± 0.0056 | 2.04 ± 0.053 |
| AGGGGU | 1.98 ± 0.025 | 2.02 ± 0.039 |
| UGGUGC | 2.02 ± 0.03 | 2.02 ± 0.044 |
| UGGUCU | 1.994 ± 0.015 | 2.0325 ± 0.0019 |
| UGGUCG | 1.844 ± 0.015 | 1.99 ± 0.021 |
| UGGUCC | 2.039 ± 0.0085 | 2.035 ± 0.016 |
| UGGUCA | 1.9757 ± 0.0013 | 2.04 ± 0.062 |
| GGGCGA | 2.089 ± 0.0043 | 2.1 ± 0.018 |
| GGGCGU | 2.103 ± 0.0047 | 2.08 ± 0.05 |
| GGGCGC | 2.011 ± 0.016 | 2.04 ± 0.048 |
| CGGGGA | 2.104 ± 0.0034 | 2.11 ± 0.065 |
| CGGGGU | 2.039 ± 0.015 | 2.07 ± 0.024 |
| CGGGGG | 1.91 ± 0.034 | 2.05 ± 0.064 |

Source: the supplement of paper PMC6757056
